This note sets out measurements from article doi:10.1101/2024.05.31.596867.

The target in the test is de-glycosylated KEN SVMP PIII (PNGase F treated under native conditions) (Bitis arietans (puff adder, Kenya)). Kind of test: gelatin zymogram.

As to “de-glycosylated KEN SVMP PIII (PNGase F treated under native conditions) (enzyme)”, the stoichiometry N (commonly a count of units in the complex or per binding partner) is 2.
